Results taken from IntAct's records for PubMed 21840486.

B1: Protein PML (Homo sapiens), P29590-1 (parent)
chain: MEPAPARSPRPQQDPARPQEPTMPPPETPSEGRQPSPSPSPTERAPASEEEFQFLRCQQCQAEAKCPKLLPCLHTLCSGCLEASGMQCPICQAPWPLGADTPALDNVFFESLQRRLSVYRQIVDAQAVCTRCKESADFWCFECEQLLCAKCFEAHQWFLKHEARPLAELRNQSVREFLDGTRKTNNIFCSNPNHRTPTLTSIYCRGCSKPLCCSCALLDSSHSELKCDISAEIQQRQEELDAMTQALQEQDSAFGAVHAQMHAAVGQLGRARAETEELIRERVRQVVAHVRAQERELLEAVDARYQRDYEEMASRLGRLDAVLQRIRTGSALVQRMKCYASDQEVLDMHGFLRQALCRLRQEEPQSLQAAVRTDGFDEFKVRLQDLSSCITQGKDAAVSKKASPEAASTPRDPIDVDLPEEAERVKAQVQALGLAEAQPMAVVQSVPGAHPVPVYAFSIKGPSYGEDVSNTTTAQKRKCSQTQCPRKVIKMESEEGKEARLARSSPEQPRPSTSKAVSPPHLDGPPSPRSPVIGSEVFLPNSNHVASGAGEAEERVVVISSSEDSDAENSSSRELDDSSSESSDLQLEGPSTLRVLDENLADPQAEDRPLVFFDLKIDNETQKISQLAAVNRESKFRVVIQPEAFFSIYSKAVSLEVGLQHFLSFLSSMRRPILACYKLWGPGLPNFFRALEDINRLWEFQEAISGFLAALPLIRERVPGASSFKLKNLAQTYLARNMSERSAMAAVLAMRDLCRLLEVSPGPQLAQHVYPFSSLQCFASLQPLVQAAVLPRAEARLLALHNVSFMELLSAHRRDRQGGLKKYSRYLSLQTTTLPPAQPAFNLQALGTYFEGLLEGPALARAEGVSTPLAGRGLAERASQQS
partner: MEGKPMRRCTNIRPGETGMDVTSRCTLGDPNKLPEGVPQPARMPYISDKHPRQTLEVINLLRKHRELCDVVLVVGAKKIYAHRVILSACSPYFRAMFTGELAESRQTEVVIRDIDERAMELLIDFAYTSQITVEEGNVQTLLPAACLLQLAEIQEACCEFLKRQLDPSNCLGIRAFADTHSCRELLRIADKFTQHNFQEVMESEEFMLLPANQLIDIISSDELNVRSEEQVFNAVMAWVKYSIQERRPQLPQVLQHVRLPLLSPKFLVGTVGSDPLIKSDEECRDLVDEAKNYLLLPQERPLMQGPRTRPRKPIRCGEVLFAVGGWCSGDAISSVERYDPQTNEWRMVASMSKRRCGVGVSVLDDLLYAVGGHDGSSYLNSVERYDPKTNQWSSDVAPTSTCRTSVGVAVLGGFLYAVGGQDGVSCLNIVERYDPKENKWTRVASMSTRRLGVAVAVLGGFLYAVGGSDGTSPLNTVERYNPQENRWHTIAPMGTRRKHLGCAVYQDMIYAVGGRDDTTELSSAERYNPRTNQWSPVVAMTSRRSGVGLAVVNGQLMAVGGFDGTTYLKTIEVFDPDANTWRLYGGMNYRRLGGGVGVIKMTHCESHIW

Variants of: B1
Conditions: with klh20_human KLHL20, Q9Y2M5

effect of a mutation on the interaction	Variant
disrupting interaction	S518A

Variants of: B1
Conditions: with klh20_human KLHL20, Q9Y2M5
Remark: another data set of the same source

effect of a mutation on the interaction	Variant
disrupting interaction	S518A
